Test results as given in the supplement of paper PMC10567573.

B1: ATL3 (parent)
chain: QELEEEIKELYENFCKHNGSKNVF

Variants of: B1
Assay: protein stability index of a GFP-peptide fusion (GPS, HEK-293T) (PSI 1-6); higher = more stable
Settings: c terminus: a fixed tail appended
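Also: lentivirally expressed fusions sorted by FACS into six bins by GFP to DsRed ratio, PSI derived from sequencing read proportions per bin multiplied by bin number.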

Going from QELEEEGKELYENFCKHNGSKNVF [I7G] to QELEEERKELYENFCKHNGSKNVF [I7R], the protein stability index falls from 4.73 to 4.17.

First: QELEEETKELYENFCKHNGSKNVF [I7T]
Second: QELEEDIKELYENFCKHNGSKNVF [E6D]
The protein stability index of the first is higher: 4.24 for the first, 3.59 for the second.

Going from QELEECIKELYENFCKHNGSKNVF [E6C] to QELEEWIKELYENFCKHNGSKNVF [E6W], the protein stability index falls from 2.32 to 1.75.

Compared with QELEERIKELYENFCKHNGSKNVF [E6R], QELEESIKELYENFCKHNGSKNVF [E6S] is higher in protein stability index: 2.77 for the first, 2.85 for the second.

Going from QELEEAIKELYENFCKHNGSKNVF [E6A] to QELEEMIKELYENFCKHNGSKNVF [E6M], the protein stability index rises from 2.13 to 2.19.

Compared with QELEEFIKELYENFCKHNGSKNVF [E6F], QELEELIKELYENFCKHNGSKNVF [E6L] is lower in protein stability index: 1.93 for the first, 1.75 for the second.

Compared with QELEETIKELYENFCKHNGSKNVF [E6T], QELEEPIKELYENFCKHNGSKNVF [E6P] is higher in protein stability index: 2.86 for the first, 3.28 for the second.

First: QELEENIKELYENFCKHNGSKNVF [E6N]
Second: QELEEYIKELYENFCKHNGSKNVF [E6Y]
The protein stability index of the first is higher: 3.29 for the first, 2.37 for the second.

Compared with QELEEGIKELYENFCKHNGSKNVF [E6G], QELEEQIKELYENFCKHNGSKNVF [E6Q] is higher in protein stability index: 3.09 for the first, 3.18 for the second.

Compared with QELEEHIKELYENFCKHNGSKNVF [E6H], QELEEKIKELYENFCKHNGSKNVF [E6K] is lower in protein stability index: 3 for the first, 2.48 for the second.

First: QELEEVIKELYENFCKHNGSKNVF [E6V]
Second: QELEEIIKELYENFCKHNGSKNVF [E6I]
The protein stability index of the first is higher: 2.08 for the first, 1.78 for the second.

First: QELEEEIRELYENFCKHNGSKNVF [K8R]
Second: QELEEEIHELYENFCKHNGSKNVF [K8H]
The protein stability index of the first is lower: 2.24 for the first, 2.86 for the second.

Going from QELEEEISELYENFCKHNGSKNVF [K8S] to QELEEEIFELYENFCKHNGSKNVF [K8F], the protein stability index falls from 3.37 to 2.48.

First: QELEEEIEELYENFCKHNGSKNVF [K8E]
Second: QELEEEILELYENFCKHNGSKNVF [K8L]
The protein stability index of the first is higher: 3.63 for the first, 2.24 for the second.

Going from QELEEEINELYENFCKHNGSKNVF [K8N] to QELEEEIAELYENFCKHNGSKNVF [K8A], the protein stability index rises from 2.45 to 2.96.

First: QELEEEIGELYENFCKHNGSKNVF [K8G]
Second: QELEEEIPELYENFCKHNGSKNVF [K8P]
The protein stability index of the first is lower: 3.67 for the first, 4.37 for the second.

First: QELEEEIMELYENFCKHNGSKNVF [K8M]
Second: QELEEEICELYENFCKHNGSKNVF [K8C]
The protein stability index of the first is lower: 2.53 for the first, 3.01 for the second.

First: QELEEEIQELYENFCKHNGSKNVF [K8Q]
Second: QELEEEIDELYENFCKHNGSKNVF [K8D]
The protein stability index of the first is lower: 3.01 for the first, 3.41 for the second.

Going from QELEEEIIELYENFCKHNGSKNVF [K8I] to SELEEEIKELYENFCKHNGSKNVF [Q1S], the protein stability index rises from 2.36 to 3.41.

First: NELEEEIKELYENFCKHNGSKNVF [Q1N]
Second: MELEEEIKELYENFCKHNGSKNVF [Q1M]
The protein stability index of the first is higher: 3.39 for the first, 2.46 for the second.

Compared with GELEEEIKELYENFCKHNGSKNVF [Q1G], TELEEEIKELYENFCKHNGSKNVF [Q1T] is lower in protein stability index: 3.31 for the first, 3.19 for the second.

Compared with FELEEEIKELYENFCKHNGSKNVF [Q1F], WELEEEIKELYENFCKHNGSKNVF [Q1W] is lower in protein stability index: 2.09 for the first, 2.03 for the second.

Going from IELEEEIKELYENFCKHNGSKNVF [Q1I] to AELEEEIKELYENFCKHNGSKNVF [Q1A], the protein stability index rises from 1.42 to 2.22.

Going from VELEEEIKELYENFCKHNGSKNVF [Q1V] to KELEEEIKELYENFCKHNGSKNVF [Q1K], the protein stability index rises from 2.08 to 2.31.

Going from PELEEEIKELYENFCKHNGSKNVF [Q1P] to EELEEEIKELYENFCKHNGSKNVF [Q1E], the protein stability index rises from 2.83 to 3.67.

Compared with DELEEEIKELYENFCKHNGSKNVF [Q1D], YELEEEIKELYENFCKHNGSKNVF [Q1Y] is lower in protein stability index: 3.13 for the first, 2.2 for the second.

First: CELEEEIKELYENFCKHNGSKNVF [Q1C]
Second: RELEEEIKELYENFCKHNGSKNVF [Q1R]
The protein stability index of the first is higher: 2.69 for the first, 2.31 for the second.

Compared with LELEEEIKELYENFCKHNGSKNVF [Q1L], HELEEEIKELYENFCKHNGSKNVF [Q1H] is higher in protein stability index: 1.76 for the first, 3.17 for the second.

Compared with QELKEEIKELYENFCKHNGSKNVF [E4K], QELLEEIKELYENFCKHNGSKNVF [E4L] is lower in protein stability index: 2.8 for the first, 2.47 for the second.

Going from QELNEEIKELYENFCKHNGSKNVF [E4N] to QELREEIKELYENFCKHNGSKNVF [E4R], the protein stability index falls from 3.96 to 2.66.

First: QELDEEIKELYENFCKHNGSKNVF [E4D]
Second: QELQEEIKELYENFCKHNGSKNVF [E4Q]
The protein stability index of the first is higher: 3.62 for the first, 1.56 for the second.

Going from QELWEEIKELYENFCKHNGSKNVF [E4W] to QELCEEIKELYENFCKHNGSKNVF [E4C], the protein stability index rises from 2.39 to 2.81.

First: QELYEEIKELYENFCKHNGSKNVF [E4Y]
Second: QELHEEIKELYENFCKHNGSKNVF [E4H]
The protein stability index of the first is higher: 2.31 for the first, 2.12 for the second.

Compared with QELTEEIKELYENFCKHNGSKNVF [E4T], QELGEEIKELYENFCKHNGSKNVF [E4G] is lower in protein stability index: 3.34 for the first, 3.2 for the second.

Going from QELIEEIKELYENFCKHNGSKNVF [E4I] to QELPEEIKELYENFCKHNGSKNVF [E4P], the protein stability index rises from 1.79 to 3.51.

Going from QELAEEIKELYENFCKHNGSKNVF [E4A] to QELVEEIKELYENFCKHNGSKNVF [E4V], the protein stability index rises from 1.97 to 2.26.

Compared with QELMEEIKELYENFCKHNGSKNVF [E4M], QELSEEIKELYENFCKHNGSKNVF [E4S] is higher in protein stability index: 2.14 for the first, 3.01 for the second.

Going from QELFEEIKELYENFCKHNGSKNVF [E4F] to QEREEEIKELYENFCKHNGSKNVF [L3R], the protein stability index rises from 2.2 to 4.33.

Going from QESEEEIKELYENFCKHNGSKNVF [L3S] to QEVEEEIKELYENFCKHNGSKNVF [L3V], the protein stability index falls from 4.62 to 2.28.

Compared with QEYEEEIKELYENFCKHNGSKNVF [L3Y], QEDEEEIKELYENFCKHNGSKNVF [L3D] is higher in protein stability index: 2.85 for the first, 4.33 for the second.

Going from QEPEEEIKELYENFCKHNGSKNVF [L3P] to QEFEEEIKELYENFCKHNGSKNVF [L3F], the protein stability index falls from 3.9 to 3.54.

Compared with QEGEEEIKELYENFCKHNGSKNVF [L3G], QEWEEEIKELYENFCKHNGSKNVF [L3W] is lower in protein stability index: 4.49 for the first, 2.21 for the second.

Compared with QEAEEEIKELYENFCKHNGSKNVF [L3A], QEQEEEIKELYENFCKHNGSKNVF [L3Q] is lower in protein stability index: 4.15 for the first, 4.01 for the second.

Going from QETEEEIKELYENFCKHNGSKNVF [L3T] to QEHEEEIKELYENFCKHNGSKNVF [L3H], the protein stability index rises from 3.83 to 4.

Compared with QEKEEEIKELYENFCKHNGSKNVF [L3K], QEMEEEIKELYENFCKHNGSKNVF [L3M] is lower in protein stability index: 4.55 for the first, 3.02 for the second.

Compared with QEIEEEIKELYENFCKHNGSKNVF [L3I], QEEEEEIKELYENFCKHNGSKNVF [L3E] is higher in protein stability index: 3.14 for the first, 4.29 for the second.

Compared with QECEEEIKELYENFCKHNGSKNVF [L3C], QENEEEIKELYENFCKHNGSKNVF [L3N] is lower in protein stability index: 3.71 for the first, 2.42 for the second.
